The target in one data set is Cys149 (position 149, …). Description: chemical modification. The settings on record: 25 °C; not stated (10 mM buffers); 10 mM sodium acetate (pH 4-5), 10 mM MES (pH 5.5-6.5), 10 mM Tris/HCl (pH 7-9); Native reduced enzyme at 2.8 uM, with no substrate or NAD+ added. Cofactor occupancy is not stated.
Data set [1] concerns the target Cys149 (UniProt position 150, …). The settings on record: cited from earlier work.
In another data set the target is Cys149. The following applies: cited from earlier work.

B1: Glyceraldehyde-3-phosphate dehydrogenase GapA (CbGAPDH) (Citrobacter sp. S-77) (protein)
chain: TIKVGINGFGRIGRIVFRAAQERSDIEIVAINDLLDADYMAYMLKYDSTHGRFNGSVEVKDGHLIVNGKKIRVTAERDPANLKWDEVGVDVVAEATGLFLTDETARKHITAGAKKVVLTGPSKDNTPMFVKGANFDKYEGQDIVSNASCTTNCLAPLAKVINDNFGIIEGLMTTVHATTATQKTVDGPSHKDWRGGRGAAQNIIPSSTGAAKAVGKVLPELNGKLTGMAFRVPTPNVSVVDLTVRLEKAASYEEIKKAIKAASEGPMKGVLGYTEDDVVSTDFNGEVCTSVFDAKAGIALNDNFVKLVSWYDNETGYSNKVLDLIAHISK
A word on the pKa: it is the negative logarithm of the acid dissociation constant. Consider B1, for which, in the data set with Cys149 (position 149, …), the pKa amounted to 5.82 ± 0.05.

B2: Glyceraldehyde-3-phosphate dehydrogenase A (GAPDH) (Escherichia coli) (protein)
chain: TIKVGINGFGRIGRIVFRAAQKRSDIEIVAINDLLDADYMAYMLKYDSTHGRFDGTVEVKDGHLIVNGKKIRVTAERDPANLKWDEVGVDVVAEATGLFLTDETARKHITAGAKKVVMTGPSKDNTPMFVKGANFDKYAGQDIVSNASCTTNCLAPLAKVINDNFGIIEGLMTTVHATTATQKTVDGPSHKDWRGGRGASQNIIPSSTGAAKAVGKVLPELNGKLTGMAFRVPTPNVSVVDLTVRLEKAATYEQIKAAVKAAAEGEMKGVLGYTEDDVVSTDFNGEVCTSVFDAKAGIALNDNFVKLVSWYDNETGYSNKVLDLIAHISK
With B2, the pKa in data set [1] is recorded as 5.70.

B3: Glyceraldehyde-3-phosphate dehydrogenase (GAPDH) (Geobacillus stearothermophilus (Bacillus stearothermophilus)) (protein)
chain: AVKVGINGFGRIGRNVFRAALKNPDIEVVAVNDLTDANTLAHLLKYDSVHGRLDAEVSVNGNNLVVNGKEIIVKAERDPENLAWGEIGVDIVVESTGRFTKREDAAKHLEAGAKKVIISAPAKNEDITIVMGVNQDKYDPKAHHVISNASCTTNCLAPFAKVLHEQFGIVRGMMTTVHSYTNDQRILDLPHKDLRRARAAAESIIPTTTGAAKAVALVLPELKGKLNGMAMRVPTPNVSVVDLVAELEKEVTVEEVNAALKAAAEGELKGILAYSEEPLVSRDYNGSTVSSTIDALSTMVIDGKMVKVVSWYDNETGYSHRVVDLAAYIASKGL
B3: the pKa with Cys149 is reported as 5.92.

These data come from PMC6325607.
